Values of other authors, collected in US20250197888A1, “NOVEL RECOMBINANT VECTOR AND USE THEREOF” (CELL & BRAIN CO., LTD., priority 2022, published 2025).

Conditions: A168H mutant; Balzarini et al., 2006

mutant HSV-TK: HSV thymidine kinase in which alanine at position 168 is substituted with histidine
kinase activity relative to wild-type HSV-TK: about 4 times
